B2: Kog1 (Kog1-TAP) in the TOROID (natural protein, S. cerevisiae)
chain: MPEIYGPQPLKPLNTVMRHGFEEQYQSDQLLQSLANDFIFYFDDKRHKTNGNPIPEEDKQRDVNRYYQPITDWKIMKDRQKTVSAALLLCLNLGVDPPDVMKTHPCARVEAWVDPLNFQDSKKAIEQIGKNLQAQYETLSLRTRYKQSLDPCVEDVKRFCNSLRRTSKEDRILFHYNGHGVPKPTKSGEIWVFNRGYTQYIPVSLYDLQTWLGAPCIFVYDCNSAENILINFQKFVQKRIKDDEEGNHDVAAPSPTSAYQDCFQLASCTSDELLLMSPELPADLFSCCLTCPIEISIRIFLMQSPLKDSKYKIFFENSTSNQPFGDSKNSFKSKIPNVNIPGMLSDRRTPLGELNWIFTAITDTIAWTSLPRPLFKKLFRHDLMIAALFRNFLLAKRIMPWYNCHPVSDPELPDSITTHPMWKSWDLAMDEVLTKIVIDLKNAPPATALESQMILQQQETLQNGGSSKSNAQDTKAGSIQTQSRFAVANLSTMSLVNNPALQSRKSISLQSSQQQLQQQQQQQQQFTGFFEQNLTAFELWLKYASNVRHPPEQLPIVLQVLLSQVHRIRALVLLSRFLDLGPWAVYLSLSIGIFPYVLKLLQSPAPELKPILVFIWARIMSIDYKNTQSELIKEKGYMYFVTVLVPDWGVNGMSATNGSAMINSGNPLTMTASQNINGPSSRYYERQQGNRTSNLGHNNLPFYHSNDTTDEQKAMAVFVLASFVRNFPLGQKNCFSLELVNKLCFYIDNSEIPLLRQWCVILLGLLFADNPLNRFVCMNTGAVEILLKSLKDPVPEVRTASIFALKHFISGFQDAEVILRLQQEFEEQYQQLHSQLQHLQNQSHLQQQQSQQQQQHLEQQQMKIEKQIRHCQVMQNQLEVIDLRKLKRQEIGNLISILPLINDGSSLVRKELVVYFSHIVSRYSNFFIVVVFNDLLEEIKLLEKSDINTRNTSDKYSVSQGSIFYTVWKSLLILAEDPFLENKELSKQVIDYILLELSAHKELGGPFAVMEKFLLKRSSKAHQTGKFGFNSSQVQFVKSSLRSFSPNERVDNNAFKKEQQQHDPKISHPMRTSLAKLFQSLGFSESNSDSDTQSSNTSMKSHTSKKGPSGLYLLNGNNNIYPTAETPRFRKHTEPLQLPLNSSFLDYSREYFQEPQMKKQEADEPGSVEYNARLWRRNRNETIIQETQGEKKLSIYGNWSKKLISLNNKSQPKLMKFAQFEDQLITADDRSTITVFDWEKGKTLSKFSNGTPFGTKVTDLKLINEDDSALLLTGSSDGVIKIYRDYQDVDTFKIVSAWRGLTDMLLTPRSTGLLTEWLQIRGSLLTTGDVKVIRVWDAHTETVEVDIPAKTSSLITSLTADQLAGNIFVAGFADGSLRVYDRRLDPRDSMIRRWRAGNDKQGVWINNVHLQRGGYRELVSGATNGVVELWDIRSEDPVESFVDQNVTSQYGSQQKPTTMTCMQVHEHAPIIATGTKQIKIWTTSGDLLNSFKNSHNNGVTSTLAATGIPKSLSYSSTSDAFLSSMAFHPHRMMIAATNSHDSIVNIYKCEDERIDYF
notes: Kog1, S. cerevisiae, expressed as KOG1-TAP; source: S. cerevisiae KOG1-TAP ∆tor1 cells grown PDS, purified as TOROID

Common to all, as to assay: cryo-EM structure; TOROID filaments purified from KOG1-TAP ∆tor1 cells grown PDS (subunits co-purified from yeast); helical reconstruction, then signal subtraction and single particle analysis, 3.87 Å
The target of one data set is T1, Tor2 in the TOROID (S. cerevisiae (endogenous in S. …, UniProt P32600 1-2474)).
T1 construct: Tor2, S. cerevisiae; source: S. cerevisiae KOG1-TAP ∆tor1 cells grown PDS, purified as TOROID
The conditions noted are these: both partners purified.

Data set [1] concerns the target B2. The conditions noted are these: both partners purified.
Data set [2] concerns the molecule itself.

T1 sequence (P32600 whole entry): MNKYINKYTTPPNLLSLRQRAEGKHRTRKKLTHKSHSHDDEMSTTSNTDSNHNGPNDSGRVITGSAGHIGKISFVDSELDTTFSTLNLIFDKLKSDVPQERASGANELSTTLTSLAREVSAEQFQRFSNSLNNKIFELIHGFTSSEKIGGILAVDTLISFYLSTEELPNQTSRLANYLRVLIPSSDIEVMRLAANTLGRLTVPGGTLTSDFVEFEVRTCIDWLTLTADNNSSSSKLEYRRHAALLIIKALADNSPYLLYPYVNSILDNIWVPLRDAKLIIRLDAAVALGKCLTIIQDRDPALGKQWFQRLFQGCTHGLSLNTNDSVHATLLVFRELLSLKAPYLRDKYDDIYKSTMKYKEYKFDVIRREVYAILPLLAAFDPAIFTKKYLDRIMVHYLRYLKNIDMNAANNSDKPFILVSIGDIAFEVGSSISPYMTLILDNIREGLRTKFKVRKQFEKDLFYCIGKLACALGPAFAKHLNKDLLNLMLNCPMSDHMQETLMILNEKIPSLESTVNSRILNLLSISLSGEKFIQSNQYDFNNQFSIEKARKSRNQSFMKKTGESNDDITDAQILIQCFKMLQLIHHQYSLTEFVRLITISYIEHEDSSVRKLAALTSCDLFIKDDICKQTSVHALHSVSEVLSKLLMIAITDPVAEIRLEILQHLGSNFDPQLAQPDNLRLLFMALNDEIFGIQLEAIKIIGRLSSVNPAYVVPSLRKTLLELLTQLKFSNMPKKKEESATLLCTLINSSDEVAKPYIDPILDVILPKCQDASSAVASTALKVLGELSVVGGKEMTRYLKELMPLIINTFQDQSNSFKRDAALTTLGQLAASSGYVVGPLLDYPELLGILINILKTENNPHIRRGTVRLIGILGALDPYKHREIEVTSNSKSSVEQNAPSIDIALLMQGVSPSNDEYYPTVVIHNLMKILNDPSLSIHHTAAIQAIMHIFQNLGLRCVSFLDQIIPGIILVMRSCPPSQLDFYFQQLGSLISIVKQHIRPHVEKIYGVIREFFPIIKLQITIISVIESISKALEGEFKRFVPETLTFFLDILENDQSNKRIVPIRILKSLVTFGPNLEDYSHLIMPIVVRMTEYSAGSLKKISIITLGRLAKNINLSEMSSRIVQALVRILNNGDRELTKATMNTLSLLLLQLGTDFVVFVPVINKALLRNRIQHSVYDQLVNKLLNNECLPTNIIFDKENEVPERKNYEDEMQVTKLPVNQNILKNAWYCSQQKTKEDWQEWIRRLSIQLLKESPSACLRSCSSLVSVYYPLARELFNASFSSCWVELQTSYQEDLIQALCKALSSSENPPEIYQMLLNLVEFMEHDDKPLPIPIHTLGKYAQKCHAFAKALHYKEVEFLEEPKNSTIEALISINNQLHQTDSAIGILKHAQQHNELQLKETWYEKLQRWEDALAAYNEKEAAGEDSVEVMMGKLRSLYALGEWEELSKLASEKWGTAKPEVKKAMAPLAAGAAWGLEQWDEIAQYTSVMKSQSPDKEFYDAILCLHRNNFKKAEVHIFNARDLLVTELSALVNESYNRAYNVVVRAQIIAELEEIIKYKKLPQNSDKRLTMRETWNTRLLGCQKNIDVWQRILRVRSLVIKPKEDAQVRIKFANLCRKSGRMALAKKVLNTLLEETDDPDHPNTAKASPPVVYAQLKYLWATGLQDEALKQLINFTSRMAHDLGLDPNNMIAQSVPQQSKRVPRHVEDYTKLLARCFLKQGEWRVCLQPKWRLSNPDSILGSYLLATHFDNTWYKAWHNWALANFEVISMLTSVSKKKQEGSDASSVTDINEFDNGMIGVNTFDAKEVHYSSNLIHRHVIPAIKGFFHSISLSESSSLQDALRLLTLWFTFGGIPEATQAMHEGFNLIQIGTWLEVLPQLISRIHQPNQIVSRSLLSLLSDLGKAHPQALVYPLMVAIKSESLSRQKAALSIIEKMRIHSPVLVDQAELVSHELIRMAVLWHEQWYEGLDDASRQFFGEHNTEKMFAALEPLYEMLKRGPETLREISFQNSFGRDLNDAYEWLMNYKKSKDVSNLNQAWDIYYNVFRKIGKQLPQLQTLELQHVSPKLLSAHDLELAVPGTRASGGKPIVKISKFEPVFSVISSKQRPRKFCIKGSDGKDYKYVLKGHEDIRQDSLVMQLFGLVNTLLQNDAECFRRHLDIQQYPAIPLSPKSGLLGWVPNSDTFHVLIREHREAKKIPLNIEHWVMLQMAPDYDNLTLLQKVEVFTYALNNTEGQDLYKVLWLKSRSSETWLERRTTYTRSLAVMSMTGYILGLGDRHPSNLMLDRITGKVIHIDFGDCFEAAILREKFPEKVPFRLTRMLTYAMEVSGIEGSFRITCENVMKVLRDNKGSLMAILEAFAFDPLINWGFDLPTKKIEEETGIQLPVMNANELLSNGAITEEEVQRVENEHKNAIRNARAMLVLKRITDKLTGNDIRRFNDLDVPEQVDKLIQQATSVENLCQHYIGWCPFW

B1: Lst8 in the TOROID (natural protein, UniProt P41318 1-303, looked up)
chain: MSVILVSAGYDHTIRFWEALTGVCSRTIQHSDSQVNRLEITNDKKLLATAGHQNVRLYDIRTTNPNPVASFEGHRGNVTSVSFQQDNRWMVTSSEDGTIKVWDVRSPSIPRNYKHNAPVNEVVIHPNQGELISCDRDGNIRIWDLGENQCTHQLTPEDDTSLQSLSMASDGSMLAAANTKGNCYVWEMPNHTDASHLKPVTKFRAHSTYITRILLSSDVKHLATCSADHTARVWSIDDDFKLETTLDGHQRWVWDCAFSADSAYLVTASSDHYVRLWDLSTREIVRQYGGHHKGAVCVALNDV
notes: Lst8, S. cerevisiae; source: S. cerevisiae KOG1-TAP ∆tor1 cells grown PDS, purified as TOROID
As to B1, the binding result (in the data set with Tor2 in the TOROID; in data set [1]) was “binds” throughout.

In the case of B2, the binding result (in the data set with Tor2 in the TOROID; in data set [2]) was “binds” each time.

The record behind these values is article PMC10023571, “EGOC inhibits TOROID polymerization by structurally activating TORC1” (Nature Structural & Molecular Biology, 2023).
